The record followed here is patent US20250270343A1 (Alector, published 2025).

As a reminder, the Kd is a measure of binding affinity in units of concentration. Usually koff stands for the rate constant with which the complex falls apart. By kon is commonly meant a measure of how fast the partners come together. In general, EC50 refers to the midpoint of the concentration-response curve. In general, EC50 (read off the curve) refers to the concentration that produces a half-maximal response. A lower EC50 (read off the curve) goes with greater potency. The IC50 is the concentration at which inhibition is half-maximal. Read a low IC50 as greater potency.

B3: soluble mouse GPNMB-Fc polypeptide (Fc of human IgG1 or mouse IgG2A, not specified for the assay) (Fc fusion, UniProt Q99P91 23-502, looked up)
chain: KRFRDVLGHEQYPDHMREHNQLRGWSSDENEWDEHLYPVWRRGDGRWKDSWEGGRVQAVLTSDSPALVGSNITFVVNLVFPRCQKEDANGNIVYEKNCRNDLGLTSDLHVYNWTAGADDGDWEDGTSRSQHLRFPDRRPFPRPHGWKKWSFVYVFHTLGQYFQKLGRCSARVSINTVNLTAGPQVMEVTVFRRYGRAYIPISKVKDVYVITDQIPVFVTMSQKNDRNLSDEIFLRDLPIVFDVLIHDPSHFLNDSAISYKWNFGDNTGLFVSNNHTLNHTYVLNGTFNLNLTVQTAVPGPCPPPSPSTPPPPSTPPSPPPSPLPTLSTPSPSLMPTGYKSMELSDISNENCRINRYGYFRATITIVEGILEVSIMQIADVPMPTPQPANSLMDFTVTCKGATPMEACTIISDPTCQIAQNRVCSPVAVDGLCLLSVRRAFNGSGTYCVNFTLGDDASLALTSTLISIPGKDPDSPLRAVN
notes: extracellular domain; also called moGPNMB-Fc; mGPNMB; not shown: Fc region of human IgG1 or mouse IgG2A; in the Fab2 assay detected with anti-human IgG1 secondary antibody

Test [1] addresses T1, soluble human GPNMB (recombinant extracellular domain) (human, UniProt Q14956 23-498).
T1 construct: also called huGPNMB; recombinant human GPNMB extracellular domain; not shown: C-terminal polyhistidine or Avi-His tag
T1 sequence: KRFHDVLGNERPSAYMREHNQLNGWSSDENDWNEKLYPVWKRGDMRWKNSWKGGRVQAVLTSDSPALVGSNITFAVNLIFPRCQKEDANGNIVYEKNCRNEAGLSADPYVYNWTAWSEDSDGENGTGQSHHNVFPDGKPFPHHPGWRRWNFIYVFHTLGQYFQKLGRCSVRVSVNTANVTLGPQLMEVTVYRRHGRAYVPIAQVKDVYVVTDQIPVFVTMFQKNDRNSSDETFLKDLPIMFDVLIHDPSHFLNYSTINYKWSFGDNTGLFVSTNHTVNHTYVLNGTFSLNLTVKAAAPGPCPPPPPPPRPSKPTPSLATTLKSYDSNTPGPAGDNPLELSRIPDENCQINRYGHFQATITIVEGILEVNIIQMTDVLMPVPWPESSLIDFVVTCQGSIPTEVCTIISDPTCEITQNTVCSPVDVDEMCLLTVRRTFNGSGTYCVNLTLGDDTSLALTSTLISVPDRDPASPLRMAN
Description: SPR Carterra, Ab amine-coupled. The method, then: (§1) Additionally, one of the anti-GPNMB antibodies of the present disclosure was evaluated using a Carterra LSA instrument (Carterra, Salt Lake City, UT). Briefly, the anti-GPNMB antibody was immobilized in duplicate spots onto an HC30M sensor chip (Carterra) by amine coupling according to the instrument manufacturer's recommended protocol. After priming with running buffer (see above) the immobilized antibody was tested for its ability to bind to recombinant human, cynomolgus, and mouse GPNMB. Analytes were diluted to 600 nM in running buffer, then further diluted 3-fold serially to 200 nM, 67 nM, 22.2 nM, 7.4 nM, and 2.5 nM. Analyte at each concentration was injected for five minutes over the entire chip using the single channel flow cell. Dissociation was measured for 5 min, followed by regeneration of the chip with two 30-second injections of 10 mM glycine, pH 2.0. The data were analyzed using the NextGenKIT high-throughput kinetics analysis software from Carterra.

Test [2] has as its target T2, soluble cynomolgus GPNMB (recombinant extracellular domain) (cynomolgus, UniProt Q14956 23-499 (human entry), limits assumed).
T2 chain: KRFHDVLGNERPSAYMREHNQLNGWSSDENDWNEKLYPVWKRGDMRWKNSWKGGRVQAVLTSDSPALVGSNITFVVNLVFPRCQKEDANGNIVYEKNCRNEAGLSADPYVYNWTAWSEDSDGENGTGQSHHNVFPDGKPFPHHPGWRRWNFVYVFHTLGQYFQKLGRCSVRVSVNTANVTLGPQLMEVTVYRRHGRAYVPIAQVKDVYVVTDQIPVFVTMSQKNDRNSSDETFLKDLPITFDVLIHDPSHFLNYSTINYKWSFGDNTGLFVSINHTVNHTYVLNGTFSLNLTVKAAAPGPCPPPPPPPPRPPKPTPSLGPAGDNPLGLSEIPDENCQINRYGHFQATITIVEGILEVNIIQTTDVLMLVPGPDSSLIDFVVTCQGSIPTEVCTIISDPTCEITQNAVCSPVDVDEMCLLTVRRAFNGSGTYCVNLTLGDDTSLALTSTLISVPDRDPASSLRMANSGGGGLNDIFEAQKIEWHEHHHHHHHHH
Put plainly: SPR Carterra, Ab amine-coupled. Here is the method: as §1

Test [3] concerns the target T3, soluble mouse GPNMB (recombinant extracellular domain) (mouse, UniProt Q99P91 23-502).
T3 construct: also called moGPNMB; not shown: C-terminal polyhistidine or Avi-His tag
T3 sequence: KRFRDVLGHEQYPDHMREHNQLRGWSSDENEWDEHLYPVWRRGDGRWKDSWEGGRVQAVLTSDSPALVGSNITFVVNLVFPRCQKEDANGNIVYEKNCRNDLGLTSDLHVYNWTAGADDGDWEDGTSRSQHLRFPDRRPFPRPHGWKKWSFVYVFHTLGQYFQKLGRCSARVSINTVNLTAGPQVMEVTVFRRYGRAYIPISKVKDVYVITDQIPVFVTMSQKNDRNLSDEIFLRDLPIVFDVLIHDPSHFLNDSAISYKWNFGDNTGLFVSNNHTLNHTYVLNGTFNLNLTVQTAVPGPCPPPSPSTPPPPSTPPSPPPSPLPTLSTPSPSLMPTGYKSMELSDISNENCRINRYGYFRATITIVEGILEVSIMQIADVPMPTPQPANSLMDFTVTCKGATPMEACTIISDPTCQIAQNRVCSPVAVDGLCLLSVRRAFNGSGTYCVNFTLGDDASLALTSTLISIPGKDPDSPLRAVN
Description: SPR Carterra, Ab amine-coupled. The method, then:
as §1

Test [4] deals with T4, soluble human GPNMB-Fc polypeptide (human, UniProt Q14956 23-498, limits assumed).
T4 construct: also called huGPNMB-Fc; not shown: Fc domain
T4 sequence (looked up): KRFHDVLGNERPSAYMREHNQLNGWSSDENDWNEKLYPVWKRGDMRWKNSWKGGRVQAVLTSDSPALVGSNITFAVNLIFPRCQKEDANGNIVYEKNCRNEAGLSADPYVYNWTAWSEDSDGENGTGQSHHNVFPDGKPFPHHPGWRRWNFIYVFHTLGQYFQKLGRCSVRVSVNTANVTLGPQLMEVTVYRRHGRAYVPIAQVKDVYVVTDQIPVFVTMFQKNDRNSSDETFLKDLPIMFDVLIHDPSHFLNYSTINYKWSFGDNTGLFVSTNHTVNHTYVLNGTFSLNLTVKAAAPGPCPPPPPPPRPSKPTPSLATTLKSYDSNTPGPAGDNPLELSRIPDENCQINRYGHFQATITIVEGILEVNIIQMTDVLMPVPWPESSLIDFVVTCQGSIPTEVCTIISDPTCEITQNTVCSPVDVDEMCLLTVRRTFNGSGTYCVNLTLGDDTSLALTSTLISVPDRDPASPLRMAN
Description: FACS, Fab2 enhancing huGPNMB-Fc binding to SVEC4-10 cells. The method, then: (§2) Purified recombinant Fab2 fragments of select anti-GPNMB antibodies of the present disclosure were produced through transient transfection and purified. Briefly, 2 ug/mL soluble mouse or human GPNMB-Fc diluted in binding buffer was pre-complexed with increasing concentrations of anti-GPNMB Fab2 fragments in 96-well plates. Subsequently, 100,000 SVEC4-10 cells were added per well and incubated on ice for 30 minutes. Soluble moGPNMB-Fc or huGPNMB-Fc bound to cell surface was detected with fluorescent anti-human IgG1 secondary antibody and measured on FACSCanto. IC50 and EC50 values based on changes in MFI values were calculated for each antibody.
A general note: In flow cytometry, cells or beads pass a laser one at a time.

The target in test [5] is B3. Put plainly: FACS, Fab2 enhancing moGPNMB-Fc binding to SVEC4-10 cells. Here is the method: as §2
The target in test [6] is T5, unidentified GPNMB ligand(s) on the surface of NHLF cells.
T5 construct: written like m62, for NHLF cells; also called Normal Human Lung Fibroblast Cells
Description: flow cytometry, titration of soluble moGPNMB-Fc on normal human lung fibroblasts; MFI-APC against concentration (ug/mL). From the text:
The extracellular domain of GPNMB protein contains putative protein- or carbohydrate-binding domains capable of recognizing various ligands on the cell surface. […] Soluble mouse GPNMB-Fc polypeptide, consisting of the extracellular domain of mouse GPNMB and an Fc region of human IgG1 or mouse IgG2A (R&D System) (moGPNMB or mGPNMB) was used to confirm the binding activity of GPNMB towards different cell lines. Binding properties of soluble moGPNMB-Fc were examined by flow cytometry. Different cell lines (mouse SVEC4-10 cells, normal human lung fibroblasts (NHLF), mouse astrocytes, and human astrocytes were nonenzymatically harvested, plated at 100,000 cells/well, and incubated with increasing concentrations moGPNMB-Fc or control human IgG1 or control mouse IgG2A, in binding buffer (Hanks' balanced salt solution containing 1.3 mM CaCl₂, 0.8 mM MgSO₄, 3% fetal calf serum, and 10 mM HEPES) for 30 min on ice.
[…] Binding of soluble moGPNMB-Fc to cells was examined by FACSCanto (Becton Dickinson, San Jose, CA). In some experiments, the binding was performed in the presence of known GPNMB binding inhibitors (heparin, dextran sulfate, all purchased from Sigma).

Test [7] addresses B3. Put plainly: FACS ligand binding assay: 2 ug/mL moGPNMB-Fc pre-complexed with rising Fab2, then SVEC4-10 cells; blocked ligand: unidentified ligand(s) on SVEC4-10 cells; bound GPNMB-Fc detected with anti-human IgG1 secondary. Here is the method:
as §2

In test [8] the target is T4, soluble human GPNMB-Fc polypeptide. Description: FACS, Fab2 blocking huGPNMB-Fc binding to SVEC4-10 cells. The method, then:
as §2

The target in test [9] is B3. Put plainly: FACS, Fab2 blocking moGPNMB-Fc binding to SVEC4-10 cells. Here is the method:
as §2

B1: anti-GPNMB antibody GPN-81 (antibody, V domains shown)
VH: QVQLQESGPGLVKPSETLSLTCTVSGISITTGNYRWSWIRQPPGKGLEWIGYIYYSGTITYNPSLKSRVTITRDTSKNQFSLELSSVTAADTAVYYCARDLTHWYFDVWGQGTLVTVSS
VL: DIVMTQSPDSLAVSLGERATINCKSSESVDYYGIGFLNWYQQKPGQPPKLLIYAASTQGSGVPDRFSGSGSGTDFTLTISSLQAEDVAVYYCQQSKEVPPTFGGGTKVEIK
notes: humanized GPN-52
Consider B1, for which the Kd worked out at 135 nM in test [1], 107 nM in test [2] and 12 nM in [3]. Besides, the off-rate constant (koff) in [1] came to 0.0098 s⁻¹; in [2], 0.01 s⁻¹; in test [3], 0.0019 s⁻¹. The kon is 76000 M⁻¹ s⁻¹ in test [1], 97000 M⁻¹ s⁻¹ in test [2] and 180000 M⁻¹ s⁻¹ in test [3].

B2: recombinant Fab2 fragment of anti-GPNMB antibody GPN-38 (other)
VH: QVQLQQPGAELVRPGTSVRLSCKASGYTFTSYWIHWVKQRPGRGLEWIGVIDPSDSYTNYNQQFNVKATLTVDTSSSAAYMQLSSLTSEDSAVYYCARGLITAVNWYFDVWGTGTTVTVSS
VL: DIQMTQSPASLSTSVGEIVTITCRASENIYSYLTWYQQKQGKSPQLLVYNAKTLAEGVPSRFSGSGSGTQFSLKINSLQPEDFGTYYCQHHYGTPLTFGSGTKLEIK
notes: also called GPN-38 Fab2
For B2, the concentration giving a half-maximal response (EC50) in [4] turned out to be 2.15 nM; in [5], 5.83 nM.

As for B3, the “EC50 (read off the curve)” value in test [6] was roughly 0.1 µg/mL.

B4: recombinant Fab2 fragment of anti-GPNMB antibody GPN-65 (other)
VH: QLQLQQSGTEVVKPGASVKIPCKASGYAFSSYWMNWVKQRPGKGLEWIGQIYPGDGDTNDNGKFEGKATLTVDKSSNTAYIQLSSLTSEDSAVYFCARSPLHLRGSMDYWGQGTSVTVSS
VL: SIVMTQTPKFLLVSAGDRVTITCKASQSVSNDVAWFQQKPGQSPELLIYSASNRYTGVPDRFTGSGYGTDFTFTISTVQAEDLAVYFCQQNYYSPFTFGGGTRLEIK
notes: also called GPN-65 Fab2
Regarding B4, the 50% effective concentration (EC50) in test [4] came out at 0.83 nM; in test [5], 0.38 nM.

B5: recombinant Fab2 fragment of anti-GPNMB antibody GPN-41 (other)
VH: QLQLQQSGTEVVKPGASVKIPCKASGYAFSSYWMNWVKQRPGKGLEWIGQIYPGDGDTNDNGKFEGKATLTVDKSSNTAYIQLSSLTSEDSAVYFCARSPLHLRGSMDYWGQGTSVTVSS
VL: SIVMTQTPKFLLVSAGDRVTITCKASQSVSNDVAWFQQKPGQSPELLIYSASNRYTGVPDRFTASGYGTDFTFTISAVQAEDLAVYFCQQNYYSPFTFGGGTRLEIK
notes: also called GPN-41 Fab2
On to B5, for which the “IC50 (read off the curve)” value in [7] was roughly 4000 nM.

B6: recombinant Fab2 fragment of anti-GPNMB antibody GPN-37 (other)
VH: EVQLVESGGGLVQPGRSLKLSCAASGFTFSSKSGMAWVRQAPTKGLEWVASISNGGGDTYYRDSVKGRFTISRDNAKNTQYLQMDSLRPEDTATYYCARHRDYGYDAYFDYWGQGVMVTVSS
VL: DIQMTQSPASLSASLGETVTIECLASEDIYSSLAWYQQKPGKSPQLLIYDASSLQDGVPSRFSGSESGTQYSLEINSLQSEDAATYFCQQHHDYPYTFGAGTKLELK
notes: also called GPN-37 Fab2
In test [8], B6 showed a half-maximal inhibitory concentration (IC50) of 9.49 nM.

B7: recombinant Fab2 fragment of anti-GPNMB antibody GPN-35 (other)
VH: EVQLVESGGGSVRPGRSLKLSCAAAGFTFSDYYMTWVRQAPTKGLEWVASINHDGGGTYYRDSVKGRFTISRDNARSSLYLQMDSLRSEDTGTYYCTTRAGWHWGQGVMVTVSS
VL: DIQMTQSPASLSASLGETVSIECLASEDIYNYLTWYQQKPGKSPQVLIYSASGLQDGVPSRFSGSGSGRQYSLKINGLESEDAATYFCLQDSEYPLTFGSGTKLEIK
notes: also called GPN-35 Fab2
As to B7, the concentration for half-maximal inhibition (IC50) in test [8] stood at 5.08 nM; in test [9], 4.05 nM.
